Experimental data: patent US20170252458A1 (EISAI R AND D MANAGEMENT, published 2017)

B1: MORAb-003-VCP-eribulin (MORAb-202) (antibody, human IgG1, kappa, V domains shown)
VH: EVQLVESGGGVVQPGRSLRLSCSASGFTFSGYGLSWVRQAPGKGLEWVAMISSGGSYTYYADSVKGRFAISRDNAKNTLFLQMDSLRPEDTGVYFCARHGDDPAWFAYWGQGTPVTVSS
VL: DIQLTQSPSSLSASVGDRVTITCSVSSSISSNNLHWYQQKPGKAPKPWIYGTSNLASGVPSRFSGSGSGTDYTFTISSLQPEDIATYYCQQWSSYPYMYTFGQGTKVEIKR
modifications: Mal-PEG2-Val-Cit-pAB-eribulin on interchain cysteines, sites not given
B2: 111B10-xi (antibody, human IgG1, kappa, V domains shown)
VH: QSVEESGGRLVTPGTPLTLTCTVSGFSLNNYAMSWVRQAPGKGLEWIGSISTGGLAFYANWAKGRFTISRTSTTVDLKMTSLTTEDTATYFCGRNGGGSYIFYYFDLWGQGTLVTVSS
VL: AFELTQTPSSVEAAVGGTITIKCQASQSISSYLSWYQQKPGQPPKLLIYSASTLASGVSSRFKGSGSGTEYTLTISDLECADAATYFCQSYYDIGTSTFGGGTEVVVKR
notes: Rabbit-human chimeric anti-human mesothelin with unpaired cysteine at LCcys80; parental mAb in Biacore; also called 111810 xi

Key:
[1] = molecular target: T1, Human folate receptor alpha on tumor cells (human, UniProt P15328 25-234); experiment: cell-based or functional assay
[2] = molecular target: T1, Human folate receptor alpha on tumor …; experiment: cell-based or functional assay; remark: listed apart in the source
[3] = molecular target: T2, Recombinant human mesothelin (human, UniProt Q13421 296-580, limits assumed); experiment: Biacore T100, antibody captured on anti-human IgG, antigen injected, 1:1 Langmuir
T2 construct: also called MSLN
Description: Antibody concentrations were adjusted to 2 μg/mL in HBS-P+ buffer (GE Healthcare). Unmodified antibodies, or ADCs, were injected over an anti-human IgG sensor on a BIAcore T100 (GE Healthcare) for 1 min at a flow rate of 10 μL/min. To record the antigen association to the captured antibody, a series of increasing concentrations of antigen was injected for 300 sec at a flow rate of 30 μL/min. […] The dissociation of antigen was monitored for 30 min at the same flow rate. The sensor surface was regenerated by injecting 3 M MgCl₂ for 2×30 sec at a flow rate of 30 μL/min. Sensograms were analyzed with Biacore T100 Evaluation Software using a 1:1 Langmuir binding model.
Binding affinities of the parental antibodies were determined by Biacore analysis, as described above in section 1.6.1. Aggregation levels for all anti-human mesothelin ADCs were determined by SEC-HPLC and the DAR was analyzed using HIC-HPLC. In vitro potency was evaluated using a Crystal Violet cell-based cytotoxicity assay in A3 (A431 stabily transfected with human mesothelin (MSLN), MSLN^hi), OVCAR3 (human ovarian, MSLN^hi), HEC-251 (human endometroid, MSLN^med), H226 (human lung squamous cell mesothelioma, MSLN^lo, and A431 parental (MSLN^neg) cells. The results of the DAR, aggregation, and cytotoxicity analyses are shown in Table 50.

T1 sequence (P15328 25-234 limits assumed): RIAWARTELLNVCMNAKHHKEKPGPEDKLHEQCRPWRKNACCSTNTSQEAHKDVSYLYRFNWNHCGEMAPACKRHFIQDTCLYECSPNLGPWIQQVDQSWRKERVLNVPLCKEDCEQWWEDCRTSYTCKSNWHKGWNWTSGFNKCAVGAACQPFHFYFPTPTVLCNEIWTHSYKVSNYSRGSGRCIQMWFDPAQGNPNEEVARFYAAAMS
T2 sequence (Q13421 other isoform, or with tags, fused parts or gaps limits assumed): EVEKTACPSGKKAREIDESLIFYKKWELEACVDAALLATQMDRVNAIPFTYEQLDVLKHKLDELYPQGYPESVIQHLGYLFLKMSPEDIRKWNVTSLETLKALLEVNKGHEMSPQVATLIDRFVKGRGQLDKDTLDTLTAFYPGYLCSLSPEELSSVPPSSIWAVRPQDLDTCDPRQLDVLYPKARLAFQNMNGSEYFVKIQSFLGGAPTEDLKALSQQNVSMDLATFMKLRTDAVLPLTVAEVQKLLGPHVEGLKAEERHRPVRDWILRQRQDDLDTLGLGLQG

Binder	Cytotoxicity EC50 (nM), A431-A3 (FR+/-), Crystal Violet assay [1] [nM]	Cytotoxicity EC50 (nM), IGROV I (FR+++), Crystal Violet assay [1] [nM]	Cytotoxicity EC50 (nM), NCI-H2110 (FR++), Crystal Violet assay [1] [nM]	Cytotoxicity EC50 (nM), OVCAR3 (FR++), Crystal Violet assay [1] [nM]	IC50 (read off the curve), % survival of IGROV1 cells, conjugate alone [2] [pM]	IC50 (read off the curve), % survival of IGROV1 cells, in the presence of 2 µM unconjugated MORAb-003 as competitor [2] [nM]	Kd [3] [nM]
B1	23	0.01	0.74	0.16	~30	~3	–
B2	–	–	–	–	–	–	6.3
